The values below come from PMC7082840 (Developmental cell, 2019).

This series deals with the molecule itself. In words: native gel or EMSA. In general terms: A gel shift assay detects complexes by their altered migration in electrophoresis.

B1: NEUROG3^S183A (natural protein, human, UniProt Q9Y4Z2 1-214, looked up)
chain: MTPQPSGAPTVQVTRETERSFPRASEDEVTCPTSAPPSPTRTRGNCAEAEEGGCRGAPRKLRARRGGRSRPKSELALSKQRRSRRKKANDRERNRMHNLNSALDALRGVLPTFPDDAKLTKIETLRFAHNYIWALTQTLRIADHSLYALEPPAPHCGELGSPGGSPGDWGSLYSPVSQAGSLAPAASLEERPGLLGATFSACLSPGSLAFSDFL
With B1, the binding result is given as “binds”.
